For the experiment, the target named is melanin-concentrating hormone receptor 1 (MCHR1) from I3.4.2 cells (human) (UniProt Q99705). The experiment in a line: cell-based or functional assay.

“And” between values parts separate entries of the source, which are not always exact repeats. Equal values may be shown once.

Sequence of melanin-concentrating hormone receptor 1 (MCHR1) from I3.4.2 cells (human) (Q99705 whole entry): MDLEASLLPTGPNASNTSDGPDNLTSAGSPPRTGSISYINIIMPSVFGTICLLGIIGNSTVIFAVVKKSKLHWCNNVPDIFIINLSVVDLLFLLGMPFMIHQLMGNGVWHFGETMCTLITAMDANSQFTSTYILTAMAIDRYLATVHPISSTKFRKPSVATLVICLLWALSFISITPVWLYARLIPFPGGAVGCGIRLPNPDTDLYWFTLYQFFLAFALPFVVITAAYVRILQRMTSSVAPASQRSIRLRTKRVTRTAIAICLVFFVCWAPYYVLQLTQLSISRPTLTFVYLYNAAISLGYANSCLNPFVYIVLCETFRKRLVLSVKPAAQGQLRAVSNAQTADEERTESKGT

For the substance “melanin-concentrating hormone (MCH) (from UniProt P20382 147-165) (peptide)”, the Ca++ response to 1 uM MCH, relative fluorescence units (FLIPR), baseline approximately 700 RFU was 5000 RFU and 6000 RFU; the EC50 for MCH-mediated Ca++-mobilization (fluorometric imaging plate reader) on I3.4.2 cells stood at 90 nM; the EC50 for receptor activation, Ca++-mobilization assay (FLIPR) on T42402I3.4.2 cells was 80 nM.

For the origin of these results see patent publication US20040259194A1.
